Source: US20090263383A1 (Amgen, published 2009)

T1: huCD148 on human endothelial cells (planar migration assay) (human, UniProt Q12913 36-1337)
T1 sequence (looked up): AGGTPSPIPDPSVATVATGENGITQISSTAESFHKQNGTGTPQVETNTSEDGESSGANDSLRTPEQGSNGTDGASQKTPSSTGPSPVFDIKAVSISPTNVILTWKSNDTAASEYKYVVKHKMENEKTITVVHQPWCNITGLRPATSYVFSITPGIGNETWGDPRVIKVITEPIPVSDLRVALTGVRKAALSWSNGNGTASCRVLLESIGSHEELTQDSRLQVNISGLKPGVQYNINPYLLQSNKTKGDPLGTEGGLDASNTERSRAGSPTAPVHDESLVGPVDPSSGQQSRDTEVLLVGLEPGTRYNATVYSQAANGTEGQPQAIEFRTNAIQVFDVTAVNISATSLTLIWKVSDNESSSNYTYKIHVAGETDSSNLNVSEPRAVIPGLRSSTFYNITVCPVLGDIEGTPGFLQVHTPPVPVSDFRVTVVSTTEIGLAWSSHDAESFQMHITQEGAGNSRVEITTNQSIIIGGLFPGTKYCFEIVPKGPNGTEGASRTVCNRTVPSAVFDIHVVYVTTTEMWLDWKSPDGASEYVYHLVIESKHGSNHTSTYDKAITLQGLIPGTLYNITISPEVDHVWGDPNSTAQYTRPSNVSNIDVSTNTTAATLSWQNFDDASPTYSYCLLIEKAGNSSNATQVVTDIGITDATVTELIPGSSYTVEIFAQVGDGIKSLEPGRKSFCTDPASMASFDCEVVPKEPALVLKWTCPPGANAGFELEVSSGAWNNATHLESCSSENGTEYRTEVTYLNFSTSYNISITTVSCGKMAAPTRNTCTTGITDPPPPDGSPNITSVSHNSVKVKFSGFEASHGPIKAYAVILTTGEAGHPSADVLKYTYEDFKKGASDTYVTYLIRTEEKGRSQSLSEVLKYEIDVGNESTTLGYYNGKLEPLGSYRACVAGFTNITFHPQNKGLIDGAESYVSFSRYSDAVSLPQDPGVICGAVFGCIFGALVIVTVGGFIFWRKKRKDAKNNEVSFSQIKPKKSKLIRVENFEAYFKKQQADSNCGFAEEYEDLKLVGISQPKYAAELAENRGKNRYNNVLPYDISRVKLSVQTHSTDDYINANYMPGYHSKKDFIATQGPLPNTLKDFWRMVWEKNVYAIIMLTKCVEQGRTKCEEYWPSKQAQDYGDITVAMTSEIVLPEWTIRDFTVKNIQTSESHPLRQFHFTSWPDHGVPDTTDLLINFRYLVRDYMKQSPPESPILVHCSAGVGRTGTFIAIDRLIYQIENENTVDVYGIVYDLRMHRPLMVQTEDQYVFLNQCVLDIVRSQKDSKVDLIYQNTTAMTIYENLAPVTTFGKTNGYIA


Molecular target: T1, huCD148 on human endothelial cells …
Assay: cell-based or functional assay

Binder | inhibiting human endothelial cell migration and/or inhibited angiogenesis in the corneal angiogenesis assay [%]
Antibody No. 1 (Ab-1) (antibody, V domains shown) VH: not shown VL: QAVLTQPSSVSGAPGQRVTISCTGSSSNIGAGYDVHWYQQLPGTAPKLLIYGNSNRPSGVPDRFSGSKSGTSASLAVTGLQAEDEADYYCQSYDSSLSDVVFGGGTKLTVL | ≥ 20
Antibody No. 3 (Ab-3) (antibody, V domains shown) VH: GVQLVQSGAEVKKPGASVKVSCKASGYTFTSYYMHWVRQAPGQGLEWMGIINPSGGSTSYAQKFQGRVTMTRDTSTSTVYMELSSLRSEDTAVYYCARRVISGAFDIWGQGTMVTVSS VL: DIQMTQSPSTLSASIGDRVTITCRASEGIYHWLAWYQQKPGKAPKLLIYKASSLASGAPSRFSGSGSGTDFTLTISSLQPDDFATYYCQQYSNYPLTFGGGTKLEIK | ≥ 20
Antibody No. 2 (Ab-2) (antibody, V domains shown) VH: not shown VL: EIVMTQSPSSLPASVGDRVTITCRASQNIKTYLHWYQQKPGKAPNLLIYAASNLQIGVPSRFSGSGSGTDFTLTISSLQPEDFATYFCQQSYITPPTFGQGTRLEIK | ≥ 20
Antibody No. 4 (Ab-4) (antibody, V domains shown) VH: QVQLVQSGAEVKKPGASVKVSCKASGYTFTSYYMHWVRQAPGQGLEWMGIINPSDGSTRYVEKFQGRVTMTRDTSTSTVYMELSSLRSEDTAVYFCARGMGPGPHYHFYMDVWGKGTMVTVSS VL: SSELTQDPAVSVALGQTVRITCQGDSLRSYYTNWFQQKPGQAPLLVVYAKNKRPSGIPDRFSGSSSGNTASLTITGAQAEDEADYYCHSRDSGGNHVLFGGGTKLTVL | ≥ 20
Antibody No. 7 (Ab-7) (antibody, V domains shown) VH: EVQLVQSGAEVKKPGESLKISCKGYGYDFSRDWIAWVRQMPGKGLEWMGIIYPGDSDTRYSPSFEGQVTISADKSISTAYLQWRSLKASDTAMYYCARQRRLGWFDPWGQGTMVTVSS VL: RSVLTQPPSVSAAPGQKVTISCSGSTSNIGNNYVSWYQQHPGKAPKLMIYDVSKRPSGVPDRFSGSKSGNSASLDISGLQSEDEADYYCAAWDDSLSEFLFGTGTKLTVL | ≥ 20

The next lines start with the values.

inhibiting human endothelial cell migration and/or inhibited angiogenesis in the corneal angiogenesis assay [%] | Binder
≥ 20 | Antibody No. 5 (Ab-5) (antibody, V domains shown) VH: QVQLVQSGAEVKKPGASVKVSCKASGYTFTGQYIHWVRQAPGQGLEWMGWISAYNGYTDYAQKVQGRVTMTTDTSTSTAYMELRSLRSDDTAVYYCAREVWPVAAADTFSVFDIWGRGTLVTVSS VL: SSELTQDPAVSVALGQTVRITCQGDSLRSYYASWYQQKPGQAPVLVIYGKNNRPSGIPDRFSGSSSGNTASLTITGAQAEDEADYYCNSRDSSGNHVVFGGGTKLTVL
≥ 20 | Antibody No. 6 (Ab-6) (antibody, V domains shown) VH: not shown VL: QSVLTQPPSASGTPGQRVTISCSGSSSNVGSNFVYWYQQFPGTAPKLLIYRNNQRPSGVPDRFSGSKSGTSASLAISGLRSEDEADYYCAAWDDTLNGHYVFGGGTKLTVL
≥ 20 | Antibody No. 8 (Ab-8) (antibody, V domains shown) VH: not shown VL: SYVLTQPPSASGTPGQRVTISCSGSSSNIGSNYVYWYQQLPGTAPKLLIYRNNQRPSGVPDRFSGSKSGTSASLAISGLQSEDEADYYCEAWDDNVDGPVFGGGTKLTVL
